Results reported in IntAct's records for PubMed 20051244.

B1: Octaprenyl diphosphate synthase (Escherichia coli (strain K12)), P0AD57 (parent)
chain: MNLEKINELTAQDMAGVNAAILEQLNSDVQLINQLGYYIVSGGGKRIRPMIAVLAARAVGYEGNAHVTIAALIEFIHTATLLHDDVVDESDMRRGKATANAAFGNAASVLVGDFIYTRAFQMMTSLGSLKVLEVMSEAVNVIAEGEVLQLMNVNDPDITEENYMRVIYSKTARLFEAAAQCSGILAGCTPEEEKGLQDYGRYLGTAFQLIDDLLDYNADGEQLGKNVGDDLNEGKPTLPLLHAMHHGTPEQAQMIRTAIEQGNGRHLLEPVLEAMNACGSLEWTRQRAEEEADKAIAALQVLPDTPWREALIGLAHIAVQRDR
partner: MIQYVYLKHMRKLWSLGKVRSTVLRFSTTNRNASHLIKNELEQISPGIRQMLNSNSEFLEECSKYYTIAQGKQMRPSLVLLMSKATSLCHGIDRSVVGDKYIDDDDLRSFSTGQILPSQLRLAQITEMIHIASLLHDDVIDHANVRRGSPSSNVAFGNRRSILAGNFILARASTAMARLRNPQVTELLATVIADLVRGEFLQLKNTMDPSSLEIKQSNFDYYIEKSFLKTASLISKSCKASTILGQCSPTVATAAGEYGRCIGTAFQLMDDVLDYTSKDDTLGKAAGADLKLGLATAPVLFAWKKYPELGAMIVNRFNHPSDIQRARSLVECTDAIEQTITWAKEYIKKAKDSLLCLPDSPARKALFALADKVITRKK
B2: Octaprenyl diphosphate synthase (Escherichia coli (strain K12)), P0AD57 (parent)
chain: B1 chain
partner: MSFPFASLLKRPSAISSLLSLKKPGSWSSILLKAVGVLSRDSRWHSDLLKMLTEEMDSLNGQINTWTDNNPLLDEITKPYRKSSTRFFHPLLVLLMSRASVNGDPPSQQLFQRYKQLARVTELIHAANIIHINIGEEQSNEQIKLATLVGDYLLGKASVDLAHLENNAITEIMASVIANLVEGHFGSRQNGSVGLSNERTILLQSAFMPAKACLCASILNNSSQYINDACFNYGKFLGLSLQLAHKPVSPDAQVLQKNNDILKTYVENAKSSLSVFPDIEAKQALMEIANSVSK

Variants of: B1
Conditions: with dps1_schpo dps1, O43091
For MNLEKINELTAQDMAGVNAAILEQLNSDVQLINQLGYYIVSGGGKRIRPMIAVLAARAVGYEGNAHVTIAALIEFIHTATLLHDDVVDESDMRRGKATANAAFGNAASVLVGDFIYTRAFQMMTSLGSLKVLEVMSEAVNVIAEGEVLQLMNVNDPDITEENYMRVIYSKTARLFEAAAQCSGILAGCTPEEEKGLQDYGRYLGTAFQLIDDLLDYNADGEQLGKNVGDDLNEGKPTLPLLHAMHHGTPEQAQMIRTAIEQGNGRHLLEPVLEAMNACGSLEWTRQRAEEEADKAIAALQVLPDTPWREALIGLAHIAVQADR [R321A], the “effect of a mutation on the interaction” value was “increasing interaction”.

Variants of: B2
Conditions: with dlp1_schpo dlp1, O13851
In the case of MNLEKINELTAQDMAGVNAAILEQLNSDVQLINQLGYYIVSGGGKRIRPMIAVLAARAVGYEGNAHVTIAALIEFIHTATLLHDDVVDESDMRRGKATANAAFGNAASVLVGDFIYTRAFQMMTSLGSLKVLEVMSEAVNVIAEGEVLQLMNVNDPDITEENYMRVIYSKTARLFEAAAQCSGILAGCTPEEEKGLQDYGRYLGTAFQLIDDLLDYNADGEQLGKNVGDDLNEGKPTLPLLHAMHHGTPEQAQMIRTAIEQGNGRHLLEPVLEAMNACGSLEWTRQRAEEEADKAIAALQVLPDTPWREALIGLAHIAVQADR [R321A], the “effect of a mutation on the interaction” value is reported as “decreasing interaction”.
